Experimental data: patent US20050171014A1 (GOVERNMENT OF THE UNITED STATES OF AMERICA REPRESENTED BY …, published 2005)
Non-standard residues stand in square brackets, D forms with d. HTI‑286 = hemiasterlin derivative, cytotoxic agent; Cha = N[C@@H](CC1CCCCC1)C(=O)O; Nle = CCCC[C@H](N)C(=O)O

Key:
[1] = biological target: low-affinity gastrin receptor of nontransfected cells; assay: cell-based or functional assay
gastrin receptor = biological target: T1, gastrin receptor; assay: cell-based or functional assay
T1 sequence (P32239 whole entry, species assumed, looked up): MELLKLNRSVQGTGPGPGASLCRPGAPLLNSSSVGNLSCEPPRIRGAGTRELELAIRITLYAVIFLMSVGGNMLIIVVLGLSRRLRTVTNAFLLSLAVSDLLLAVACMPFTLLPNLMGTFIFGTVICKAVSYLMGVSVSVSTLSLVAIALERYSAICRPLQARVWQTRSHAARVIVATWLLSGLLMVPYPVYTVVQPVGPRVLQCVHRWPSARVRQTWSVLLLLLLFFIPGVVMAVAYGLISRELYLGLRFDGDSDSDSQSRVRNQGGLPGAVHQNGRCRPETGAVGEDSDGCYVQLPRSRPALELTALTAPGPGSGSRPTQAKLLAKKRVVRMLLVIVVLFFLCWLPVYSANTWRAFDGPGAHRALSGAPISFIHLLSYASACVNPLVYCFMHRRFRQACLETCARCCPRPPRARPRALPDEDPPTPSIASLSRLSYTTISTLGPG

IC50, growth inhibition of nontransfected cells (MTT or sulforhodamine assay) [1]: 0.3 µM | IC50, growth inhibition of gastrin receptor-expressing 3T3 cells (MTT or sulforhodamine assay) (gastrin receptor): 0.01 µM
Binder: {HTI‑286}-[Cha]LALAEEEAYGW[Nle]DF-NH2 [HTI-286-Cha-Leu-Ala-Leu-Ala-EEEAYGW-Nle-DF-NH2]
